Measured values reported in patent publication US20150099861A1.

Molecular target: CMV peptide 495-503 (pp65) presented on target cells (CMV) (UniProt P06725)

CD8+ T cells educated against pp65 peptide in the IVE assay (untreated) (cells without a defined receptor)
lysis in the chromium release assay: > 50%
